Test [1] addresses human 4-1BB (human, UniProt Q07011 24-255). As to the kind of experiment: FACS.
The target in test [2] is human PD-L1 (human, UniProt Q9NZQ7 19-290). As to the kind of experiment: FACS. On the technique in general: In flow cytometry, cells or beads pass a laser one at a time.

The EC50 is the concentration that produces a half-maximal response.

human PD-L1, sequence (Q9NZQ7 19-290): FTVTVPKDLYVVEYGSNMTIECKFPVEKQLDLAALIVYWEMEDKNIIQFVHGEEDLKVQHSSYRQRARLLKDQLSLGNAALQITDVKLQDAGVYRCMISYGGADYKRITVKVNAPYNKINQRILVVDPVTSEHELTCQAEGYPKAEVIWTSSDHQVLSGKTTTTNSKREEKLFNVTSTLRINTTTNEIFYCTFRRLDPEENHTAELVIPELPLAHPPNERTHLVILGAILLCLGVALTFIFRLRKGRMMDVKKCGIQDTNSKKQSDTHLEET

B1: PR003564 (bispecific antibody)
light: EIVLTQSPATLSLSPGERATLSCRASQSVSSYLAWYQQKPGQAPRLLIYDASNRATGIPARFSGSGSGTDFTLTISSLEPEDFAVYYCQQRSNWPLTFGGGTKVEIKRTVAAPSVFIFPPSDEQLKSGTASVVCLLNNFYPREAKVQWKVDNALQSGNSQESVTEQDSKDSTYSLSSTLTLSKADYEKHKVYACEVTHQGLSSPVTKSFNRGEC
heavy: EVQLLESGGGLVQPGGSLRLSCAASGFTFSSFVMSWVRQAPGKGLEWVSTISGSGRSTYYADSVKGRFTISRDNSKNTLHLQMNSLRAEDTAVYYCAKDAAAAGTKFDYWGQGTLVTVSSASTKGPSVFPLAPSSKSTSGGTAALGCLVKDYFPEPVTVSWNSGALTSGVHTFPAVLQSSGLYSLSSVVTVPSSSLGTQTYICNVNHKPSNTKVDKKVEPKSCDKTHTCPPCPAPEAAGGPSVFLFPPKPKDTLMISRTPEVTCVVVDVSHEDPEVKFNWYVDGVEVHNAKTKPREEQYNSTYRVVSVLTVLHQDWLNGKEYKCKVSNKALGAPIEKTISKAKGQPREPQVYTLPPSREEMTKNQVSLTCLVKGFYPSDIAVEWESNGQPENNYKTTPPVLDSDGSFFLYSKLTVDKSRWQQGNVFSCSVMHEALHNHYTQKSLSLSPGEPKSSDKTHTPPPPPRTEVQLLESGGGLVQPGGSLRLSCAASGFIFSNFAMTWVRQPPEKGLKWVSSINGSGFNTYYTDSVKGRFTISRDNSRNTLYLQMNRLTAEDTAVYFCAKEGSSETDDHYYNVDVWGQGTTVTVSS
Consider B1, for which, in test [1], the EC50 stood at 2.78 nM.

B2: PR007164 (bispecific antibody)
chain 1: EVQLVESGGGLVQPGGSLRLSCAASGFTFSSYWMSWVRQAPGKGLEWVANIKQEGSEKYYVDSVKGRFTISRDNAKNSLYLQMNSLRAEDTAVYYCARDRAVAGAFDIWGQGTMVTVSSASTKGPSVFPLAPSSKSTSGGTAALGCLVKDYFPEPVTVSWNSGALTSGVHTFPAVLQSSGLYSLSSVVTVPSSSLGTQTYICNVNHKPSNTKVDKKVEPKSC
chain 2: not shown
With B2, in test [2], the EC50 was 1.93 nM.

B3: PR004270 (bispecific antibody)
chain 1: B2 chain 1
chain 2: not shown
Molecule B3 registered a 50% effective concentration (EC50) in test [2] of 0.963 nM.

B4: PR007163 (bispecific antibody)
light: DIQMTQSPSTLSASVGDRVTVTCRASQSIYIWLAWYQQKPGKAPNLLIYKASSLETGVPSRFSGSGSGTEFTLTISSLQPDDFATYYCQQYYGSSRTFGQGTKVEIKRTVAAPSVFIFPPSDEQLKSGTASVVCLLNNFYPREAKVQWKVDNALQSGNSQESVTEQDSKDSTYSLSSTLTLSKADYEKHKVYACEVTHQGLSSPVTKSFNRGEC
heavy: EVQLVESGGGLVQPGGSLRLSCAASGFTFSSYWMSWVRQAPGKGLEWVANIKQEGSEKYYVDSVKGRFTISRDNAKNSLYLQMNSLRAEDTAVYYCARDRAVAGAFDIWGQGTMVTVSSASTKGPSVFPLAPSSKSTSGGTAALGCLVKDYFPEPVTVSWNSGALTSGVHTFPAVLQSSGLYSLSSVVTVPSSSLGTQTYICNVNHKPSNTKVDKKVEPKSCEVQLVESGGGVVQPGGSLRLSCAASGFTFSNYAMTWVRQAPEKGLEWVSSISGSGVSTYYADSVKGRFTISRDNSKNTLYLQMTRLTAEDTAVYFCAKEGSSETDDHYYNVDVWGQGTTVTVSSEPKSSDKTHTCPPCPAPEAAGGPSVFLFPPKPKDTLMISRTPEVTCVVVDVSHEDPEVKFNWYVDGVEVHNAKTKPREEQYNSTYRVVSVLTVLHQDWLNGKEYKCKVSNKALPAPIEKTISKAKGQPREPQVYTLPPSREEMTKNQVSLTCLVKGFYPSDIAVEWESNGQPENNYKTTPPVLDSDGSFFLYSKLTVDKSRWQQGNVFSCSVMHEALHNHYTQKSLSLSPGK
As for B4, in test [2], a half-maximal effect (EC50) was put at 2.26 nM. Against the preceding molecule, the EC50 is about 2.3-fold higher.

B5: PR003550 (bispecific antibody)
light: B4 light
heavy: EVQLVESGGGLVQPGGSLRLSCAASGFTFSSYWMSWVRQAPGKGLEWVANIKQEGSEKYYVDSVKGRFTISRDNAKNSLYLQMNSLRAEDTAVYYCARDRAVAGAFDIWGQGTMVTVSSASTKGPSVFPLAPSSKSTSGGTAALGCLVKDYFPEPVTVSWNSGALTSGVHTFPAVLQSSGLYSLSSVVTVPSSSLGTQTYICNVNHKPSNTKVDKKVEPKSCDKTHTCPPCPAPEAAGGPSVFLFPPKPKDTLMISRTPEVTCVVVDVSHEDPEVKFNWYVDGVEVHNAKTKPREEQYNSTYRVVSVLTVLHQDWLNGKEYKCKVSNKALGAPIEKTISKAKGQPREPQVYTLPPSREEMTKNQVSLTCLVKGFYPSDIAVEWESNGQPENNYKTTPPVLDSDGSFFLYSKLTVDKSRWQQGNVFSCSVMHEALHNHYTQKSLSLSPGEPKSSDKTHTPPPPPRTEVQLVESGGGVVQPGGSLRLSCAASGFTFSNYAMTWVRQAPEKGLEWVSSISGSGVSTYYADSVKGRFTISRDNSKNTLYLQMTRLTAEDTAVYFCAKEGSSETDDHYYNVDVWGQGTTVTVSS
Molecule B5 returned a 50% effective concentration (EC50) in test [2] of 1.11 nM.

Source of the values: patent US20230303698A1 (published 2023).
